Data reported in publication PMC9482650, “Quantitative fragmentomics allow affinity mapping of interactomes” (Nature Communications, 2022).

T1: DLG3_1, Q92796
T1 sequence (Q92796 125-227, limits assumed, looked up): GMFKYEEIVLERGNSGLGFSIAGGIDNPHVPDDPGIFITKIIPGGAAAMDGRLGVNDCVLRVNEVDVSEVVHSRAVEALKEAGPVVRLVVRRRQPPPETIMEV

T2: SHANK1, Q9Y566
T2 sequence (Q9Y566 658-767, limits assumed, looked up): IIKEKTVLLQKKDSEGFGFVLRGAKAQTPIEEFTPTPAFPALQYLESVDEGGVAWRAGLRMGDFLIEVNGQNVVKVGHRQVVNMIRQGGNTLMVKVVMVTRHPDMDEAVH

T3: APBA2_1, Q99767
T3 sequence (Q99767 563-664, limits assumed, looked up): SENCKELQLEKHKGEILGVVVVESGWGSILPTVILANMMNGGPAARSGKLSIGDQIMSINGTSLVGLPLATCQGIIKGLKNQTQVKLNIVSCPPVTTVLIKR

T4: NHERF3_1, Q5T2W1
T4 sequence (Q5T2W1 4-100, limits assumed, looked up): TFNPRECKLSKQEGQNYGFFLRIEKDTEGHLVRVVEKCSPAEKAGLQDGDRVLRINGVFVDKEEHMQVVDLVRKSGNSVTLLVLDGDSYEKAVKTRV

T5: DLG3_2, Q92796
T5 sequence (Q92796 221-321, limits assumed, looked up): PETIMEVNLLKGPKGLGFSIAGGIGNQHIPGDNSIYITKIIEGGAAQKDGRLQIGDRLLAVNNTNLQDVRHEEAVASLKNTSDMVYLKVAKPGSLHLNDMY

T6: SNTG1, Q9NSN8
T6 sequence (Q9NSN8 52-150, limits assumed, looked up): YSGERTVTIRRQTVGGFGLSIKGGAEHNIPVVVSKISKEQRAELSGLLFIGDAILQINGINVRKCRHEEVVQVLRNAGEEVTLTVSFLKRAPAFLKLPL

T7: TJP3_3, O95049
T7 sequence (O95049 375-456, limits assumed, looked up): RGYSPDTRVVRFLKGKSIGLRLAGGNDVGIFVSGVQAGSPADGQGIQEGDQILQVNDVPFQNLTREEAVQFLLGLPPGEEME

T8: MPDZ_10, O75970
T8 sequence (O75970 1624-1722, limits assumed, looked up): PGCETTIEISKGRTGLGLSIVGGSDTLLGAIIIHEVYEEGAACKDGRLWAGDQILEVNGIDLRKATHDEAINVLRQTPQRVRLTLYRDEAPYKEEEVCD

T9: SNTA1, Q13424
T9 sequence (Q13424 82-180, limits assumed, looked up): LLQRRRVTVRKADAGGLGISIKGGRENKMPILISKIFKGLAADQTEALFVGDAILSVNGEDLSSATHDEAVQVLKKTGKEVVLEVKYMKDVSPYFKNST

T10: RHPN1, Q8TCX5
T10 sequence (Q8TCX5 508-602, limits assumed, looked up): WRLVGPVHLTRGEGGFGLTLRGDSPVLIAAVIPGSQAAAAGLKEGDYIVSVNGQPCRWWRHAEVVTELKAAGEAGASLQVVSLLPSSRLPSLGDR

T11: TX1BP3, O14907
T11 sequence (O14907 10-122, limits assumed, looked up): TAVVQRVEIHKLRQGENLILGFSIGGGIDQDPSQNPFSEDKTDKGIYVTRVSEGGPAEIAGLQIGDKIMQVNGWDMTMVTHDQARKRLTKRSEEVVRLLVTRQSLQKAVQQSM

T12: SYNJ2BP, P57105
T12 sequence (P57105 8-110, limits assumed, looked up): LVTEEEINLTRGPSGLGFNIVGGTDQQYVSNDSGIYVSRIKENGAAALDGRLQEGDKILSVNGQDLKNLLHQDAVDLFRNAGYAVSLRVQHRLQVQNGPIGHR


What was measured:
Test in all cases: holdup assay
Set-up in all cases: key: below the threshold = too weak to quantify, mostly under pKd 3.1 to 4
Settings in all cases: plain residues with an end cap or a label only (N-terminal biotin on a linker: ado-ado)
DLG3_1, Q92796 = biological target: T1, DLG3_1, Q92796
SHANK1, Q9Y566 = biological target: T2, SHANK1, Q9Y566
LIMK2, P53671 = biological target: LIMK2, P53671
ARHGEF12, Q9NZN5-2 = biological target: ARHGEF12, Q9NZN5-2
FRMPD3, Q5JV73 = biological target: FRMPD3, Q5JV73
IL16_4, Q14005 = biological target: IL16_4, Q14005
PDZRN4_1, Q6ZMN7 = biological target: PDZRN4_1, Q6ZMN7
APBA2_1, Q99767 = biological target: T3, APBA2_1, Q99767
NHERF3_1, Q5T2W1 = biological target: T4, NHERF3_1, Q5T2W1
DLG3_2, Q92796 = biological target: T5, DLG3_2, Q92796
SNTG1, Q9NSN8 = biological target: T6, SNTG1, Q9NSN8
GOPC, Q9HD26 = biological target: GOPC, Q9HD26
TJP3_3, O95049 = biological target: T7, TJP3_3, O95049
MPDZ_10, O75970 = biological target: T8, MPDZ_10, O75970
DLG5_1, Q8TDM6 = biological target: DLG5_1, Q8TDM6
GRID2IP_1, A4D2P6 = biological target: GRID2IP_1, A4D2P6
GRASP, Q7Z6J2 = biological target: GRASP, Q7Z6J2
CASK, O14936 = biological target: CASK, O14936
MAST2, Q6P0Q8 = biological target: MAST2, Q6P0Q8
SNTA1, Q13424 = biological target: T9, SNTA1, Q13424
RHPN1, Q8TCX5 = biological target: T10, RHPN1, Q8TCX5
SCRIB_1, Q14160 = biological target: SCRIB_1, Q14160
TX1BP3, O14907 = biological target: T11, TX1BP3, O14907
MAGI1_2, Q96QZ7 = biological target: MAGI1_2, Q96QZ7
NHERF4_1, Q86UT5-2 = biological target: NHERF4_1, Q86UT5-2
SYNJ2BP, P57105 = biological target: T12, SYNJ2BP, P57105

Sequence of FRMPD3, Q5JV73 (Q5JV73 12-100): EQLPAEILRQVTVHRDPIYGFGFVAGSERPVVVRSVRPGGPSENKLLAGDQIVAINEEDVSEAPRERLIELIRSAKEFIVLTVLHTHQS
Sequence of NHERF4_1, Q86UT5-2 (Q86UT5 other isoform, or with tags, fused parts or gaps): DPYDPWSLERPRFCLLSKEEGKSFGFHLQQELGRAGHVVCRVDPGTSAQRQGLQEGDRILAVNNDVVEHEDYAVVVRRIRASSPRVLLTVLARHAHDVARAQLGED
Sequence of GRASP, Q7Z6J2 (Q7Z6J2 96-193): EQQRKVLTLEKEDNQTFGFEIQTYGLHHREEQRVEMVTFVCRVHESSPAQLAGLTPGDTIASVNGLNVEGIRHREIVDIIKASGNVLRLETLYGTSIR
Sequence of SCRIB_1, Q14160 (Q14160 718-814): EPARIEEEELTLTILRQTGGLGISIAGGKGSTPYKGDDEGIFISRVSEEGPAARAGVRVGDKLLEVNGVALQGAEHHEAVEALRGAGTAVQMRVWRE
Sequence of LIMK2, P53671 (P53671 143-248): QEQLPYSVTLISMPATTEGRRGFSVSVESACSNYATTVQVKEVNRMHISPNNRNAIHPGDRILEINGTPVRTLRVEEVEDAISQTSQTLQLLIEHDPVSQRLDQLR
Sequence of MAST2, Q6P0Q8 (Q6P0Q8 1099-1202): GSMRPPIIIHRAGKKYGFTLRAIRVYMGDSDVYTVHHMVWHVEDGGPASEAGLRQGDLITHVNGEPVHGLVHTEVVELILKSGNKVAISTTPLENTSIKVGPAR
Sequence of DLG5_1, Q8TDM6 (Q8TDM6 617-713): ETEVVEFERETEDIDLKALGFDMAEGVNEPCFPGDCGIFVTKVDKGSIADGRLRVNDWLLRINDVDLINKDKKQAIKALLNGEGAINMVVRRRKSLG
Sequence of CASK, O14936 (O14936 487-570): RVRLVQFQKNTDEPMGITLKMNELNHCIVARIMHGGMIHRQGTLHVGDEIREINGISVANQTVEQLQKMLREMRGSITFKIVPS
Sequence of IL16_4, Q14005 (Q14005 1229-1329): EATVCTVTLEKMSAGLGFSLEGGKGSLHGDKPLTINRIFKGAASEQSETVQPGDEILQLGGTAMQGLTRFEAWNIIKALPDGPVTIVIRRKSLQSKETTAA
Sequence of GRID2IP_1, A4D2P6 (A4D2P6 1-87): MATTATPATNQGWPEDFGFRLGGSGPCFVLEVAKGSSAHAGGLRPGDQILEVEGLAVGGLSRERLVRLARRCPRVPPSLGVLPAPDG
Sequence of MAGI1_2, Q96QZ7 (Q96QZ7 456-580): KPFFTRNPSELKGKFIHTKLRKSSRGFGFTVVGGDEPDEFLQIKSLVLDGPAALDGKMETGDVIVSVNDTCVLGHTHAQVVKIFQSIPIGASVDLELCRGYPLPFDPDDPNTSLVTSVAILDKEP
Sequence of PDZRN4_1, Q6ZMN7 (Q6ZMN7 213-318): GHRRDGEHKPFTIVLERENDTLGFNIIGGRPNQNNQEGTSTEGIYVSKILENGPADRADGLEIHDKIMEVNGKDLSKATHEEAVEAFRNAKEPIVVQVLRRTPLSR
Sequence of ARHGEF12, Q9NZN5-2 (Q9NZN5 other isoform, or with tags, fused parts or gaps): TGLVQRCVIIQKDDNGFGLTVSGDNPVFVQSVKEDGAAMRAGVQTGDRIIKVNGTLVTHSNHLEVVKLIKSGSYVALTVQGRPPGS

Row | Binder | pKd (LIMK2, P53671) | pKd (ARHGEF12, Q9NZN5-2) | pKd (FRMPD3, Q5JV73) | pKd (IL16_4, Q14005) | pKd (PDZRN4_1, Q6ZMN7) | pKd (APBA2_1, Q99767) | pKd (NHERF3_1, Q5T2W1) | pKd (DLG3_2, Q92796) | pKd (SNTG1, Q9NSN8) | pKd (GOPC, Q9HD26) | pKd (TJP3_3, O95049) | pKd (DLG5_1, Q8TDM6) | pKd (GRID2IP_1, A4D2P6) | pKd (GRASP, Q7Z6J2) | pKd (CASK, O14936) | pKd (MAST2, Q6P0Q8) | pKd (SNTA1, Q13424) | pKd (RHPN1, Q8TCX5) | pKd (SCRIB_1, Q14160) | pKd (TX1BP3, O14907) | further results
1 | KSTTRSSSSC [NDE1, Q9NXR1;Q9NXR1-2] | below the threshold | 4.62 | below the threshold | below the threshold | below the threshold | below the threshold | 3.91 | 4.07 | below the threshold | below the threshold | below the threshold | below the threshold | below the threshold | below the threshold | below the threshold | 4.06 | below the threshold | below the threshold | below the threshold | 3.93 | pKd (DLG3_1, Q92796): below the threshold; pKd (SHANK1, Q9Y566): below the threshold; pKd (MPDZ_10, O75970): below the threshold
2 | GDHLDRRVVL [VAC14, Q08AM6] | below the threshold | 3.61 | below the threshold | below the threshold | below the threshold | below the threshold | below the threshold | below the threshold | below the threshold | below the threshold | below the threshold | below the threshold | below the threshold | below the threshold | below the threshold | 4.1 | below the threshold | below the threshold | below the threshold | 3.71 | pKd (DLG3_1, Q92796): below the threshold; pKd (SHANK1, Q9Y566): below the threshold; pKd (MAGI1_2, Q96QZ7): 3.51; pKd (NHERF4_1, Q86UT5-2): 4.07; pKd (MPDZ_10, O75970): 3.51; pKd (SYNJ2BP, P57105): below the threshold
3 | QELLEYETTV [XKR7, Q5GH72] | below the threshold | 4.02 | below the threshold | below the threshold | 4.55 | below the threshold | 3.93 | 4.85 | 5.14 | 3.96 | 3.5 | 3.69 | below the threshold | 4.12 | below the threshold | 5.46 | 4.98 | 4.66 | 4.41 | 3.92 | pKd (DLG3_1, Q92796): 4.51; pKd (SHANK1, Q9Y566): 4.44; pKd (MAGI1_2, Q96QZ7): 3.6; pKd (NHERF4_1, Q86UT5-2): below the threshold; pKd (MPDZ_10, O75970): below the threshold; pKd (SYNJ2BP, P57105): 4.98
4 | SKSLERATQL [COMMD3, Q9UBI1] | below the threshold | 4.79 | below the threshold | 3.95 | 3.89 | below the threshold | 5.82 | 4.01 | 3.51 | 3.81 | below the threshold | below the threshold | below the threshold | 4 | below the threshold | 5.7 | 4.06 | 4.13 | 3.83 | below the threshold | pKd (DLG3_1, Q92796): 3.72; pKd (SHANK1, Q9Y566): 4.81; pKd (MAGI1_2, Q96QZ7): 3.85; pKd (NHERF4_1, Q86UT5-2): 4.23; pKd (MPDZ_10, O75970): below the threshold; pKd (SYNJ2BP, P57105): 3.73
5 | LRYARPADAL [PPP1R3G, B7ZBB8] | below the threshold | below the threshold | below the threshold | below the threshold | below the threshold | below the threshold | 3.9 | below the threshold | below the threshold | below the threshold | below the threshold | below the threshold | below the threshold | 3.47 | below the threshold | below the threshold | below the threshold | below the threshold | below the threshold | below the threshold | pKd (DLG3_1, Q92796): below the threshold; pKd (SHANK1, Q9Y566): below the threshold; pKd (MAGI1_2, Q96QZ7): below the threshold; pKd (NHERF4_1, Q86UT5-2): 4.29; pKd (MPDZ_10, O75970): below the threshold; pKd (SYNJ2BP, P57105): below the threshold
6 | EYRKDNKVAA [LSM14A, Q8ND56;Q8ND56-2] | below the threshold | below the threshold | below the threshold | below the threshold | below the threshold | below the threshold | below the threshold | 4.23 | below the threshold | below the threshold | below the threshold | below the threshold | below the threshold | below the threshold | below the threshold | below the threshold | below the threshold | below the threshold | below the threshold | below the threshold | pKd (MAGI1_2, Q96QZ7): below the threshold; pKd (SYNJ2BP, P57105): below the threshold
